Measured values reported in PMC9911596 (Nature Communications, 2023).

T1: Vtc1/Vtc3/Vtc4 complex (VTC complex) (Saccharomyces cerevisiae, UniProt P47075+Q02725)
T1 construct: full-length subunits co-expressed in Expi293F; Vtc1 C-terminal HA, Vtc3 N-terminal 3xFlag, Vtc4 C-terminal 2xStrep; detergent-purified; 3:1:1 pentamer; with Vacuolar transporter chaperone complex subunit 1
T1 sequence (P47075 1-721): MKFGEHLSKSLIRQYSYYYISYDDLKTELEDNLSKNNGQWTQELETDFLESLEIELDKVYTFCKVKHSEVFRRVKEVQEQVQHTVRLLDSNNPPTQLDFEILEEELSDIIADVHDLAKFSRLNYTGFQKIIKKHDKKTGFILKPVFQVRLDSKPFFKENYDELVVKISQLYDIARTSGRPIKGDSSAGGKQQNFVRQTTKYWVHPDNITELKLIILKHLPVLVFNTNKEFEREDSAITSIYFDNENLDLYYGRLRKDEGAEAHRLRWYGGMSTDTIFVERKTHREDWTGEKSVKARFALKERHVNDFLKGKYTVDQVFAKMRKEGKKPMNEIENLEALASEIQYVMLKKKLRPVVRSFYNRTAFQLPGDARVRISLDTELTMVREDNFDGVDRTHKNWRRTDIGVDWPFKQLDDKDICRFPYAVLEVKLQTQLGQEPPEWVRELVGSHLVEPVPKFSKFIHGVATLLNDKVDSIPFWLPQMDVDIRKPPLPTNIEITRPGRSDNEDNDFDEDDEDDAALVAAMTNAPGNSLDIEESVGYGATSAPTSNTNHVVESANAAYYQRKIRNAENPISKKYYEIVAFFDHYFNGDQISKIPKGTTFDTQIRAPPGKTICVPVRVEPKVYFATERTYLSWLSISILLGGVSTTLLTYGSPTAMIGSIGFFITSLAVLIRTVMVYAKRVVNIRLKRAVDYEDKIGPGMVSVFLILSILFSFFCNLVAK
T1 sequence (Q02725 1-835): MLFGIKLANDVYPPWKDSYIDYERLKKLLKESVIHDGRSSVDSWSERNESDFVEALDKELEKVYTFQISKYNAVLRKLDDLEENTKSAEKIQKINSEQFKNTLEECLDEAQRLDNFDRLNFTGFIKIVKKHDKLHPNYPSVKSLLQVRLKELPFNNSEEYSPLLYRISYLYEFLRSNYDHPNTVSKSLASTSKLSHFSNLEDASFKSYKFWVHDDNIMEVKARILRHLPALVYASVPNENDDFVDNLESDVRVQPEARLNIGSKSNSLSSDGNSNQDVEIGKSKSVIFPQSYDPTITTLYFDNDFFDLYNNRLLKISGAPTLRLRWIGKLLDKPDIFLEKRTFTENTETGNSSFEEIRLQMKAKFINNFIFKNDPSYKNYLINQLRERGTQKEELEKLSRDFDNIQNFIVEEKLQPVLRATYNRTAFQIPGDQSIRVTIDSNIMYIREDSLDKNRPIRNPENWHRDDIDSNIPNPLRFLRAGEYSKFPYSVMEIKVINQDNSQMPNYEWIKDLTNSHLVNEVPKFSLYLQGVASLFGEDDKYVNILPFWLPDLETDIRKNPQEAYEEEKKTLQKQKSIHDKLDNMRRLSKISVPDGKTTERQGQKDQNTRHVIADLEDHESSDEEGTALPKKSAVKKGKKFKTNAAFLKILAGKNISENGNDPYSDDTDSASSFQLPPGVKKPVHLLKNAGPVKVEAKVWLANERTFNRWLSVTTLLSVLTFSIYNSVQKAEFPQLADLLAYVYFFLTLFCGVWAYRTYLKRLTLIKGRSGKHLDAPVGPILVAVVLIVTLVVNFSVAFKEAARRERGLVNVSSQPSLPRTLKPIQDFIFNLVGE
T1 sequence (P40046 2-129 partner): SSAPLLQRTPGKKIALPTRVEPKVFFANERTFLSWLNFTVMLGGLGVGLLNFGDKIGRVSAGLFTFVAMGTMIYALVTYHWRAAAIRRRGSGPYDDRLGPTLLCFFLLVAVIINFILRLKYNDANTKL

T2: Vtc3 (Baker's yeast, UniProt Q02725 1-835)
T2 construct: Vtc3, yeast, UniProt Q02725; codon-optimized DNA in the pMlink vector; source: Expi293F cells, transiently cotransfected with the Vtc1 and Vtc4 plasmids; purified as part of the VTC complex (anti-Flag resin, Strep-Tactin resin; SEC for the cryo-EM sample); not shown: 3×Flag, N-terminal, kept
T2 sequence: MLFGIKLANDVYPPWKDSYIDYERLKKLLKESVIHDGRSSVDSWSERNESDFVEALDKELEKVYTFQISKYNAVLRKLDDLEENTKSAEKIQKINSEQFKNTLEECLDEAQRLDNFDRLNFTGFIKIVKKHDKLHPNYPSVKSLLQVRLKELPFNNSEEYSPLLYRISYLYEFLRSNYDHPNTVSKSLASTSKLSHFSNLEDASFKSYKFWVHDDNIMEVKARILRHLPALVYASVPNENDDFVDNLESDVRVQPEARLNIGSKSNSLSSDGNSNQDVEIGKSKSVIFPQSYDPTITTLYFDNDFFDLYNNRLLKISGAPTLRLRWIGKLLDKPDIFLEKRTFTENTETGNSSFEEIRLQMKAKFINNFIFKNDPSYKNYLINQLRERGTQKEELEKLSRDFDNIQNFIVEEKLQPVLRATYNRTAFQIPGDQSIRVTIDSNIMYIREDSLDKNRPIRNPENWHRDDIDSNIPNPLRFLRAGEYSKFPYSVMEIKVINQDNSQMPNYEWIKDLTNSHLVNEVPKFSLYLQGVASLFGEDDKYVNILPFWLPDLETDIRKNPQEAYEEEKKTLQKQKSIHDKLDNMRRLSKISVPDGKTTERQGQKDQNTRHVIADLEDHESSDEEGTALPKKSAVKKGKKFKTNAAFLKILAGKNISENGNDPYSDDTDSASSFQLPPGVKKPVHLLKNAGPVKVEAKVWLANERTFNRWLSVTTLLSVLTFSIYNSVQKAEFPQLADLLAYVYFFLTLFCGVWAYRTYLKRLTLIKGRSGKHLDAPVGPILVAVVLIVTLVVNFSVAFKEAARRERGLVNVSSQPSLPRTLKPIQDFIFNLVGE

B1: Vtc4_(R264A/R266A/E426N) (natural protein, Baker's yeast)
chain: KFGEHLSKSLIRQYSYYYISYDDLKTELEDNLSKNNGQWTQELETDFLESLEIELDKVYTFCKVKHSEVFRRVKEVQEQVQHTVRLLDSNNPPTQLDFEILEEELSDIIADVHDLAKFSRLNYTGFQKIIKKHDKKTGFILKPVFQVRLDSKPFFKENYDELVVKISQLYDIARTSGRPIKGDSSAGGKQQNFVRQTTKYWVHPDNITELKLIILKHLPVLVFNTNKEFEREDSAITSIYFDNENLDLYYGRLRKDEGAEAHALAWYGGMSTDTIFVERKTHREDWTGEKSVKARFALKERHVNDFLKGKYTVDQVFAKMRKEGKKPMNEIENLEALASEIQYVMLKKKLRPVVRSFYNRTAFQLPGDARVRISLDTELTMVREDNFDGVDRTHKNWRRTDIGVDWPFKQLDDKDICRFPYAVLNVKLQTQLGQEPPEWVRELVGSHLVEPVPKFSKFIHGVATLLNDKVDSIPFWLPQMDVDIRKPPLPTNIEITRPGRSDNEDNDFDEDDEDDAALVAAMTNAPGNSLDIEESVGYGATSAPTSNTNHVVESANAAYYQRKIRNAENPISKKYYEIVAFFDHYFNGDQISKIPKGTTFDTQIRAPPGKTICVPVRVEPKVYFATERTYLSWLSISILLGGVSTTLLTYGSPTAMIGSIGFFITSLAVLIRTVMVYAKRVVNIRLKRAVDYEDKIGPGMVSVFLILSILFSFFCNLVAK
notes: Vtc4, yeast, UniProt P47075; codon-optimized DNA in the pMlink vector; three substitutions in the TTM domain; also called catalytically impaired Vtc4; source: Expi293F cells, transiently cotransfected with the Vtc1 and Vtc3 plasmids; purified as part of the VTC complex with 1 mM InsP6 (anti-Flag resin, Strep-Tactin resin, SEC); not shown: 2×Strep, C-terminal, kept

Columns and labels:
[1] = target: T1, Vtc1/Vtc3/Vtc4 complex (VTC complex); assay: polyP synthesis, TBE-PAGE and DAPI; type: biochemical; details: 15 mM ATP, 10 mM MgCl2, 1 mM MnCl2, 0.5 mM pyrophosphate, InsP6, 27 °C, 4 h
Vtc3 = target: T2, Vtc3; assay: cryo-EM structure; Vtc1/Vtc3/Vtc4_(R264A/R266A/E426N) complex co-expressed in Expi293F and purified with 1 mM InsP6, 0.02% GDN, 25 mM Tris-HCl pH 8.0, 150 mM NaCl; 3.0 Å; details: both partners purified
Vtc4_(R264A/R266A/E426N) = target: B1; assay: as above; details: both partners purified
[2] = target: the molecule itself; assay: as above

Row | stoichiometry N (Vtc3) | stoichiometry N (Vtc4_(R264A/R266A/E426N)) | Molecule | polyP synthesis, TBE-PAGE and DAPI [1] | stoichiometry N [2]
1 | – | – | Nc1ncnc2c1ncn2[C@@H]1O[C@H](COP(=O)(O)OP(=O)(O)OP(=O)(O)O)[C@@H](O)[C@H]1O [ATP] | we incubated VTC complex with ATP and InsP6 | –
2 | 1 | – | B1 | – | –
3 | 3 | 3 | Vtc1 (natural protein, Baker's yeast, Vtc1, yeast, UniProt P40046; codon-optimized DNA in the pMlink vector; Three copies of Vtc1 stand in the Vtc1/Vtc3/Vtc4 complex (3:1:1); also called Vtc1A; Vtc1B; source: Expi293F cells, transiently cotransfected with the Vtc3 and Vtc4 plasmids; purified as part of the VTC complex (anti-Flag resin, Strep-Tactin resin; SEC for the cryo-EM sample)) SSAPLLQRTPGKKIALPTRVEPKVFFANERTFLSWLNFTVMLGGLGVGLLNFGDKIGRVSAGLFTFVAMGTMIYALVTYHWRAAAIRRRGSGPYDDRLGPTLLCFFLLVAVIINFILRLKYNDANTKL | – | 3
